Measured values published in US20200093883A1 (published 2020).
Square brackets hold non-standard residues; d marks the D form. Ends that are not written are not given here.

Assays:
Experiment in all cases: AlphaScreen
[1] = molecular target: hJNK1
[2] = molecular target: hJNK2
[3] = molecular target: hJNK3

B1: SEQ ID NO: 172 (peptide)
peptide: [dR]KKR[dR]QRR[dR]RP[dK]RP[dA]TLNL[dF]-NH2
modifications: N-terminus assumed
SMILES: CC(C)C[C@H](NC(=O)[C@H](CC(N)=O)NC(=O)[C@H](CC(C)C)NC(=O)[C@@H](NC(=O)[C@@H](C)NC(=O)[C@@H]1CCCN1C(=O)[C@H](CCCNC(=N)N)NC(=O)[C@@H](CCCCN)NC(=O)[C@@H]1CCCN1C(=O)[C@H](CCCNC(=N)N)NC(=O)[C@@H](CCCNC(=N)N)NC(=O)[C@H](CCCNC(=N)N)NC(=O)[C@H](CCCNC(=N)N)NC(=O)[C@H](CCC(N)=O)NC(=O)[C@@H](CCCNC(=N)N)NC(=O)[C@H](CCCNC(=N)N)NC(=O)[C@H](CCCCN)NC(=O)[C@H](CCCCN)NC(=O)[C@H](N)CCCNC(=N)N)[C@@H](C)O)C(=O)N[C@H](Cc1ccccc1)C(N)=O
IC50 [1]: 0.722 µM | IC50 [2]: 54.7 nM | IC50 [3]: 102 nM

[dD][dQ][dS][dR][dP][dV][dQ][dP][dF][dL][dN][dL][dT][dT][dP][dR][dK][dP][dR][dP][dP][dR][dR][dR][dQ][dR][dR][dK][dK][dR]G [SEQ ID NO: 197]
IC50 [1]: 24.4 µM | IC50 [2]: 802 nM | IC50 [3]: 1290 nM
